Assay results published in publication PMC10397247.
Like-named read-outs stand apart in the source and are kept apart here.

T1: O9-bN
T1 chain: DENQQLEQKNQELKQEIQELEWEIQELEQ

T2: O8-bN
T2 chain: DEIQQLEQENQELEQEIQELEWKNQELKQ


How the values were obtained:
O9-bN = biological target: T1, O9-bN; assay: two-hybrid library CCNG1;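 note: natural log of median RNA to DNA barcode read ratio; higher means stronger binding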
O8-bN = biological target: T2, O8-bN; assay: two-hybrid library CCNG1;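 note: natural log of median RNA to DNA barcode read ratio; higher means stronger binding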

interaction score (O9-bN) | interaction score (O8-bN) | interaction score (O9-bN; mean of both orientations) | Binder
-0.872 | 0.371 |  | DEIQQLEQENQELEQEIQELEWKNQELKQ [O8-bN]
 |  | -1.9 | DENQQLEQKNQELKQEIQELEWEIQELEQ [O9-bN]
